Measured values from US8420776 (US Dept. of Health and Human Services, dated 2013).

Experiments:
[1] = biological target: T1, lysine 48-linked (K48) tetra-ubiquitin (UniProt P0CG48 1-76, four ubiquitins joined by lysine 48 isopeptide links); experiment: GST pull-down, anti-ubiquitin immunoblot
T1 construct: the monomer is its first 76 residues

[2] = biological target: UbcH5B, in vitro translated and labelled with 35S-methionine (human, UniProt P62837 1-147); experiment: GST pull-down, E2 in vitro translated in wheat germ
[3] = biological target: T2, Ube2G2/MmUbc7, in vitro translated and labelled with 35S-methionine (human (100% identical to mouse MmUbc7), UniProt P60604 1-165, 35S-methionine label); experiment: GST pull-down, E2 translated in wheat germ and labelled with 35S-Met, equal counts
T2 construct: Translated in wheat germ or rabbit reticulocyte lysate; also called in vitro translated Ube2G2
T2 sequence: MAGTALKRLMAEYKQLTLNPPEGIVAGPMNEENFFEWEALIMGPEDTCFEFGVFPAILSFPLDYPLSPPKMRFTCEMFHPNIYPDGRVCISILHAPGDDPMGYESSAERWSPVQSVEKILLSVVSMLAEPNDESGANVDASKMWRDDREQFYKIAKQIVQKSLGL

[4] = biological target: T3, yeast Ubc7p, in vitro translated and labelled with 35S-methionine (yeast, UniProt Q02159 1-165, 35S-methionine label); experiment: as above
T3 sequence (looked up): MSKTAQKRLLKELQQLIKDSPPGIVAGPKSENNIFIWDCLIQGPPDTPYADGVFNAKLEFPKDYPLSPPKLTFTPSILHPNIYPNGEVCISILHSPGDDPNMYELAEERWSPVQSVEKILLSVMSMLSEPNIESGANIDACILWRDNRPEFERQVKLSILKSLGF

[5] = biological target: T4, N-terminal GFP fusion of gp78 residues 574-611 (GFP-574-611) (human, UniProt P42212 1-238 = GFP); experiment: co-immunoprecipitation with GFP fusion from HEK 293T cells
T4 construct: the vector encodes the enhanced variant; also called G2BD

[6] = biological target: N-terminal GFP fusion of gp78 residues 574-611 with the E2-m2 mutation (GFP-574-611E2-m2) (human, UniProt P42212 1-238 = GFP); experiment: anti-GFP immunoprecipitation from HEK 293T cells, immunoblot for endogenous Ube2G2
[7] = biological target: T5, gp78 truncated after amino acid 576 of SEQ ID NO:2 (gp78576) (human, UniProt Q9UKV5 1-576); experiment: anti-Myc immunoprecipitation from co-transfected cells, anti-gp78 immunoblot
T5 construct: C-terminal truncation after the indicated amino acid

[8] = biological target: T6, gp78 truncated after amino acid 595 of SEQ ID NO:2 (gp78595) (human, UniProt Q9UKV5 1-595); experiment: as above
T6 construct: C-terminal truncation after the indicated amino acid

[9] = biological target: T7, gp78 truncated after residue 611 of SEQ ID NO:2 (gp78611) (human, UniProt Q9UKV5 1-611); experiment: as above
T7 construct: C-terminal truncation after the indicated amino acid

[10] = biological target: N-terminal GFP fusion of gp78 amino acids 579-600 of SEQ ID NO:2 (human, UniProt P42212 1-238 = GFP); experiment: anti-Myc immunoprecipitation from cells co-transfected with GFP fusion and Myc-Ube2G2, anti-GFP immunoblot

B1: GST fusion of the cytoplasmic domain of yeast Cue1p (Cue1p 24-203) (other, UniProt P38428 24-203, looked up)
chain: QSNQHPSAQRLSATGVNAHGRPQGSTQNALRRTGRVNGGHPVTTQMVETVQNLAPNLHPEQIRYSLENTGSVEETVERYLRGDEFSFPPGFEPSRAPMGANAAVDNNAAGGGEFNDPRKKNMICAENLLDKFHVDLNEDMSNLSFKDLDIEERKRLLVWQARKNLETKLQSDKDLQSLLT
notes: range 24-203; also called GST-Cue1p 24-203; not shown: glutathione S-transferase (GST) fusion partner, N-terminal (pGEX4T-1)
[1]
  binding result: no binding (tested: 1 ug K48 tetra-ubiquitin)
[2]
  binding result: no binding
[3]
  amount bound (% of input): ~10 % of input
[4]
  amount bound (% of input): ~10 % of input

B2: endogenous Ube2G2 of HEK 293T cells (enzyme)
chain: AGTALKRLMAEYKQLTLNPPEGIVAGPMNEENFFEWEALIMGPEDTCFEFGVFPAILSFPLDYPLSPPKMRFTCEMFHPNIYPDGRVCISILHAPGDDPMGYESSAERWSPVQSVEKILLSVVSMLAEPNDESGANVDASKMWRDDREQFYKIAKQIVQKSLGL
notes: Endogenous protein in cell lysate, detected with rabbit antiserum to residues 148-165; also called endogenous E2
[5]
  binding result: binds
[6]
  binding result: no binding

B3: Myc-Ube2G2, co-expressed in HEK 293T cells (enzyme, not shown: small tags and cut ends)
chain: MAGTALKRLMAEYKQLTLNPPEGIVAGPMNEENFFEWEALIMGPEDTCFEFGVFPAILSFPLDYPLSPPKMRFTCEMFHPNIYPDGRVCISILHAPGDDPMGYESSAERWSPVQSVEKILLSVVSMLAEPNDESGANVDASKMWRDDREQFYKIAKQIVQKSLGL
notes: Plasmid described in Tiwari and Weissman, 2001; also called Myc-MmUbc7; myc-tagged MmUbc7/Ube2G2
[7]
  binding result: no binding
[8]
  binding result: no binding
[9]
  binding result: binds
[10]
  binding result: binds
